According to patent US10131920B2, “Nucleic acid molecules” (MEDIMMUNE LIMITED, priority 2013, dated 2018):

B1: 2×Asp: two tandem repeats of the murine tRNA asp-pyl tRNA bicistronic pair (nucleic acid)
DNA: TCCTCGTTAGTATAGTGGTGAGTATCCCCGCCTGTCACCCGCGAGACCGGCGTTCCATTCCCCGACGGGGAGACGTAGCCCCACCTCGGAAACCTGATCATGTAGATCGAATGGACTCTAAATCCGTTCAGCCGGGTTAGATTCCCGGGGTTTCCGTAGCGTCCTTTTTGGAAAGACAAGGTGCGTCGTAGTCGGCGTTGTCCTCGTTAGTATAGTGGTGAGTATCCCCGCCTGTCACCCGCGAGACCGGCGTTCCATTCCCCGACGGGGAGACGTAGCCCCACCTCGGAAACCTGATCATGTAGATCGAATGGACTCTAAATCCGTTCAGCCGGGTTAGATTCCCGGGGTTTCCGTAGCGTCCTTTTT
modifications: Synthetic sequence 2x tRNAasp-pyl DNA construct including 2 repeats of the bicistronic construct tRNAasp-pyl
notes: two tandem repeats of the murine tRNA asp-pyl tRNA bicistronic pair
B2: H1-B tRNA: tRNA-B (A52C) under control of the H1 promoter (nucleic acid)
DNA: AATATTTGCATGTCGCTATGTGTTCTGGGAAATCACCATAAACGTGAAATCCCTATCAGTGATAGAGACTTATAAGTTCCCTATCAGTGATAGAGACACCAGGAAACCTGATCATGTAGATCGAATGGACTCTAAATCCGTTCAGCCGGGTCAGATTCCCGGGGTTTCCGGACAAGTGCGGTTTTTTT
modifications: Synthetic sequence H1 tRNA-B construct
notes: tRNA-B (A52C) under control of the H1 promoter
B3: 3×Glu: three tandem repeats of the murine tRNA glu and pyltRNA bicistronic pair (nucleic acid)
DNA: GCCGTGACCTCGGGCCGACGCTCCCTGGTGGTCTAGTGGTTAGGATTCGGCGCTCTCACCGCCGCGGCCCGGGTTCGATTCTCGGTCAGGGAAGCCTCTCCCCCAAACCTCGGAAACCTGATCATGTAGATCGAATGGACTCTAAATCCGTTCAGCCGGGTTAGATTCCCGGGGTTTCCGCTTCTTCCTCTTTTCTGCACCCTCACTTCAGCTGAGCCGTGACCTCGGGCCGACGCTCCCTGGTGGTCTAGTGGTTAGGATTCGGCGCTCTCACCGCCGCGGCCCGGGTTCGATTCTCGGTCAGGGAAGCCTCTCCCCCAAACCTCGGAAACCTGATCATGTAGATCGAATGGACTCTAAATCCGTTCAGCCGGGTTAGATTCCCGGGGTTTCCGCTTCTTCCTCTTTTCTGCACCCCAATATTGCCGTGACCTCGGGCCGACGCTCCCTGGTGGTCTAGTGGTTAGGATTCGGCGCTCTCACCGCCGCGGCCCGGGTTCGATTCTCGGTCAGGGAAGCCTCTCCCCCAAACCTCGGAAACCTGATCATGTAGATCGAATGGACTCTAAATCCGTTCAGCCGGGTTAGATTCCCGGGGTTTCCGTAGCGTCCTTTTTGGAAAGACAAGTGGGTGGCGAATTCGATATC
modifications: Synthetic sequence 3x tRNAglu-pyl DNA construct including 3 repeats of the bicistronic construct tRNAglu-tRNApyl
notes: three tandem repeats of the murine tRNA glu and pyltRNA bicistronic pair

System: GFPY40 reporter in 3H7 cells
Test: Amber suppression-dependent GFP expression (GFPY40 reporter), transient transfection of 3H7 cells, flow cytometry
Assay type: cell-based
Settings: three days; for GFP MFI, FIG. 11: 1 ug GFPY40 and 1 ug tRNA expression vector, lys-azide
Method: To assess the function of the tRNA variants, an in vitro assay was established where cells are transiently transfected with a tRNA construct and a reporter construct encoding GFP containing an amber codon interrupting its reading frame (GFPY40). HEK293 cells stably expressing pylRS were transiently transfected with various tRNA constructs (1 ug) and the GFPY40 reporter (1 ug). In the absence of elements that support amber suppression, a truncated GFP protein is generated and the cell is not fluorescent. However, the introduction of a functional tRNA and the presence of a nnAA that supports amber suppression allows for the production of full length GFP resulting in fluorescent cells. The level of GFP expression reflects the efficiency of amber suppression and is quantified by flow cytometry. tRNA genes encoding wild type tRNApyl (WT tRNA), or containing mutations in the B-box (B tRNA—SEQ ID No 9), in both the A and B box (A2B tRNA—SEQ ID No 10), or in the A box (A1 tRNA-SEQ ID No 7; or A2 tRNA SEQ ID No 11), all under control of the H1 promoter were generated by site directed mutagenesis and assayed. The H1 promoter ensured that the variants were expressed and allowed us to examine the functional effects of the mutations introduced into the tRNA genes. In addition a sample transfected with GFPY40 alone was generated to establish background GFP levels. The transfected cells were grown in presence of the aminoacid analogue lys azide (2 mM) and incubated for 18 hours. GFP fluorescence was then assayed by flow cytometry and mean fluorescence intensity determined for each sample. Data were analysed with FCS Express and the mean fluorescence intensity of each sample determined using markers that constrain the data set to cells showing fluorescence above negative controls. […] The constructs thus are functional and may contain the necessary genetic sequence to enable the expression of the tRNA also in the absence of an upstream promoter element such as the H1 promoter.
Having established that the B mutation introduced into the pyltRNA sequence enabled expression of the tRNA that supported amber suppression we then asked whether this mutation affected the orthogonality of the tRNA and led to the incorporation of natural amino acids. To do this 3H7 cells were transiently transfected with expression constructs encoding WT-tRNA, B-tRNA, H1-tRNA and H1-B tRNA along with the GFPY40 reporter. Transfected cells were grown in the presence of 2 mM lys azide or absence of nnAA as indicated (FIG. 6), and GFP expression assessed by flow cytometry after three days. In addition, a sample transfected only with GFPY40 was examined to determine background amber suppression levels in the absence of tRNA. […] A comparison of GFP expression between the WT tRNA (MFI 33,781) and tRNA B (232,505) lacking extragenic promoter elements confirms that the B mutation generates a functional intragenic promoter. Indeed, the B tRNA construct enabled a seven-fold increase in the level of amber suppression dependent expression of GFP over WT tRNA.
We also tested the utility of a bicistronic tRNA expression construct for its ability to express tRNApyl. Here, the murine tRNA Glu and tRNA Asp were utilized. In each case, multiple repeats of the constructs were generated to increase activity (3×Glu-pyl and 2×Asp-pyl). Here, 3H7 cells were transiently transfected with 1 ug of the reporter construct GFPY40 and 1 ug of the indicated tRNA expression vectors (FIG. 11) and incubated with lys-azide for three days. Data were collected by flow cytometry and mean fluorescence intensities for each sample were plotted. […] The construct consisting of the 7SL WT tRNA (MFI=312) was included as a metric for low efficiency. In addition cell lines containing only the GFPY40 reporter were used as negative controls (MFI=0).

Row | Molecule | GFP MFI, FIG. 11 | GFP MFI in the presence of lys-azide, FIG. 6 (2 mM lys azide) | GFP MFI in the absence of nnAA, FIG. 6 (no nnAA)
1 | B1 | 419 | – | –
2 | B2 | – | 313,386 | 36,217
3 | B3 | 419 | – | –
